Results reported in patent US20230303699A1 (EXELIXIS, published 2023).
Changes are numbered by the printed parent chain.

What was measured:
Mouse PD-L1 = biological target: T1, Mouse PD-L1 (mouse, UniProt Q9EP73 19-238, biotinylated); test: Octet BLI; biotinylated mouse PD-L1 on streptavidin sensor
T1 construct: Bought, biotinylated and immobilized on a streptavidin sensor; also called mPD-L1; Acro Cat. No. PD1-M5220

[1] = biological target: T2, human PD-L1-His tag (extracellular domain) (human, UniProt Q9NZQ7 19-238); test: Octet BLI, monovalent; IgG on Fc capture sensor, soluble PD-L1-His
T2 construct: Bought from Acro Biosystems; also called Acro Cat. No. PD1H5229; soluble antigen
T2 sequence (Q9NZQ7 19-238): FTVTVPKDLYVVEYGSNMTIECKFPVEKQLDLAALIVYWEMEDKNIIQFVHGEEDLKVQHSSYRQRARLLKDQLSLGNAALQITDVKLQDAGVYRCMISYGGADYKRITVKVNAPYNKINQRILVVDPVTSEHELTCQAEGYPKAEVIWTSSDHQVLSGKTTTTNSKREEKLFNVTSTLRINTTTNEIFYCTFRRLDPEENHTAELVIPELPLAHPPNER
Excerpt: The bivalent interaction of binders to the biotinylated human PD-L1 (see Example 1) immobilized on a streptavidin biosensor was monitored using an Octet (Pall ForteBio) instrument. To monitor monovalent interaction, full-length IgG molecule was immobilized to a Fc capture biosensor and its interaction with soluble antigen was monitored using an Octet instrument.
First, the antibodies were immobilized on an Fc capture sensor. In the next association step, the binding interaction of PD-L1 (Acro Cat. No. PD1H5229 (PD-L1-His tag)) to the immobilized IgG was measured. […] Octet kinetic analysis software was used to calculate the kinetic and equilibrium binding constants from the rate of association and dissociation curves. The analysis was performed using global curve fit where kinetic constants were derived simultaneously from all analyte concentration included in the experiment.

[2] = biological target: T3, PD-L1 on PD-L1 overexpressing CHO-K1 cells (Homo sapiens (Human), UniProt Q9NZQ7 19-290); test: cell-based or functional assay
T3 sequence (Q9NZQ7 19-290 limits assumed): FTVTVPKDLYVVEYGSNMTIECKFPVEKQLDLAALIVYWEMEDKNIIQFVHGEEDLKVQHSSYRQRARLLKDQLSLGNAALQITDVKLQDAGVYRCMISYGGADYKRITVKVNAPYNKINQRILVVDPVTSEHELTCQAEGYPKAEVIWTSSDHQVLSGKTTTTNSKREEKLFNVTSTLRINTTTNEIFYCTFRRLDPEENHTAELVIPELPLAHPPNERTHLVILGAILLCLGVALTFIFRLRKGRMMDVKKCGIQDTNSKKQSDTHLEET

[3] = biological target: T3, PD-L1 on PD-L1 overexpressing CHO-K1 …; test: flow cytometry on PD-L1 CHO-K1 cells
Description: (§1) Cells were harvested at 70-90% confluence on the day of the assay. Cells were collected by centrifugation at 200×g for 5 minutes and media was removed. Cells were resuspended at 2×10⁶ cells per mL in cold PBS. […] 50 μL per well of the antibody dilution was plated in a 96 well V-bottom plate (Costar 3897). 50 μL per well of cell suspension was added. Plates were placed at 4° C. for 45-60 minutes.
(§2) Cells were collected by centrifugation at 400×g for 7 minutes and primary antibody was removed. […] Plates were placed at 4° C. for 30 minutes.
(§3) Cells were collected by centrifugation at 400×g for 7 minutes and secondary antibody was removed. Cells were resuspended in 50 μL per well of PBS and analyzed by flow cytometry. Binding curves were calculated using the mean fluorescence intensity (MFI) of the FITC fluorescence signal on the cells.

[4] = biological target: T3, PD-L1 on PD-L1 overexpressing CHO-K1 …; test: flow cytometry on PD-L1 overexpressing CHO-K1 cells, AF488 goat anti human IgG Fab secondary, MFI
Description: as §1, §2, §3

[5] = biological target: T3, PD-L1 on PD-L1 overexpressing CHO-K1 …; test: cell-based or functional assay; remark: listed apart in the source

T1 sequence (Q9EP73 19-238 limits assumed): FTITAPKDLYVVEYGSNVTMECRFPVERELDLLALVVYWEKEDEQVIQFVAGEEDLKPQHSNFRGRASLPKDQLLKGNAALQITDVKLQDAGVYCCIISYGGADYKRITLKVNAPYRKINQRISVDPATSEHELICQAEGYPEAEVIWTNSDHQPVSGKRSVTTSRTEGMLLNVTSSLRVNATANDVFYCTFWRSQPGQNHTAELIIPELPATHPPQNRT

B1: antibody designated P22 (antibody, human IgG1, kappa, V domains shown)
VH: EVQLVESGGGLVQPGGSLRLSCAASGFTFSSYYIHWVRQAPGKGLEWVAWITSHGYSTKYADSVKGRFTISADTSKNTAYLQMNSLRAEDTAVYYCARDSVIYGLDYWGQGTLVTAST
VL: DIQMTQSPSSLSASVGDRVTITCRASQSVSSAVAWYQQKPGKAPKLLIYSASSLYSGVPSRFSGSRSGTDFTLTISSLQPEDFATYYCQQYYTSPYTFGQGTKVEIKR
notes: Tested as full length IgG
Mouse PD-L1
  binding result: no binding
[1]
  KD: < 20 nM
  Kd: 17.2 nM
[2]
  PD-1/PD-L1 Interaction Blocking Reporter Assay IC50: 2.43 nM
[3]
  EC50: 0.523 nM

B2: antibody designated P24 (antibody, human IgG1, kappa, V domains shown)
VH: EVQLVESGGGLVQPGGSLRLSCAASGFTFDQYYIHWVRQAPGKGLEWVAEIYPAGSYTYYADSVKGRFTISADTSKNTAYLQMNSLRAEDTAVYYCARGPYSVRYALDYWGQGTLVTAST
VL: B1 VL with Y91V, Y92S, T93Y
notes: Tested as full length IgG
Mouse PD-L1
  binding result: no binding
[4]
  EC50 (read off the curve): ~2 nM
[1]
  KD: < 20 nM
  Kd: 17.5 nM
[2]
  PD-1/PD-L1 Interaction Blocking Reporter Assay IC50: 4.98 nM
[3]
  EC50: 1.62 nM

B3: antibody designated P31.2 (antibody, human IgG1, kappa, V domains shown)
VH: EVQLVESGGGLVQPGGSLRLSCAASGFTFSSYYIHWVRQAPGKGLEWVATISSGGGFTYYADSVKGRFTISADTSKNTAYLQMNSLRAEDTAVYYCARGYTLTPVLDYWGQGTLVTAST
VL: B1 VL with Y91F, Y92G, T93A, S94E, Y96I
notes: Tested as full length IgG
[5]
  IC50 (read off the curve): ~2 nM
Mouse PD-L1
  binding result: no binding
[1]
  KD: < 20 nM
  Kd: 13 nM
[2]
  PD-1/PD-L1 Interaction Blocking Reporter Assay IC50: 1.23 nM
[3]
  EC50: 0.552 nM
